Source: patent US20240327497A1
Values joined by “and” are separate entries in the source; they are usually repeats but may differ in a detail not shown here. Equal entries are not always repeated.

Tests used:
[1] = target: canine FcRn (FcRn large subunit with canine beta-2-microglobulin) (canine); test: SPR pH 5.5, SASA-Fc captured on BSA, FcRn 400 nM
[2] = target: canine FcRn (FcRn large subunit with canine beta-2-microglobulin) (canine); test: SPR pH 5.5, SASA-Fc captured on BSA, FcRn 200 nM
[3] = target: canine FcRn (FcRn large subunit with canine beta-2-microglobulin) (canine); test: SPR pH 6.0, SASA-Fc captured on BSA, FcRn 200 nM
[4] = target: canine FcRn (FcRn large subunit with canine beta-2-microglobulin) (canine); test: SPR pH 6.0, SASA-Fc captured on BSA, FcRn 100-800 nM
[5] = target: canine FcRn (FcRn large subunit with canine beta-2-microglobulin) (canine); test: SPR pH 6.0, IgG coupled to CM5, FcRn 50-800 nM
[6] = target: canine FcRn (FcRn large subunit with canine beta-2-microglobulin) (canine); test: SPR pH 5.9, IgG coupled to C1 chip, 1:1 kinetic fit
[7] = target: canine FcRn (FcRn large subunit with canine beta-2-microglobulin) (canine); test: SPR pH 7.4, FcRn coupled at high density, IgG 400 nM
[8] = target: canine FcRn (FcRn large subunit with canine beta-2-microglobulin) (canine); test: SPR pH 5.5, SASA-Fc captured on BSA, FcRn 100-800 nM

B1: canine IgGB Fc (CH2-CH3) N434A with N-terminal SASA tag (Fc fusion, part only; not given: SASA tag, not shown: another chain or arm of the molecule; small tags and cut ends)
Fc: APEMLGGPSVFIFPPKPKDTLLIARTPEVTCVVVDLDPEDPEVQISWFVDGKQMQTAKTQPREEQFNGTYRVVSVLPIGHQDWLKGKQFTCKVNNKALPSPIERTISKARGQAHQPSVYVLPPSREELSKNTVSLTCLIKDFFPPDIDVEWQSNGQQEPESKYRTTPPQLDEDGSYFLYSKLSVDKSRWQRGDTFICAVMHEALHAHYTQESLSHSPGK
Kd [1]: 457 nM and 494 nM | WT KD Avg/Variant KD [1]: 1.24 and 1.14 | koff [1]: 0.237 s⁻¹ and 0.477 s⁻¹ | kon [1]: 518000 M⁻¹ s⁻¹ and 966000 M⁻¹ s⁻¹ | Kd [2]: 573 nM and 629 nM | koff [2]: 0.156 s⁻¹ and 0.164 s⁻¹ | kon [2]: 272000 M⁻¹ s⁻¹ and 261000 M⁻¹ s⁻¹

B2: canine IgGB Fc (CH2-CH3) Y436H with N-terminal SASA tag (Fc fusion, part only; not given: SASA tag, not shown: another chain or arm of the molecule; small tags and cut ends)
Fc: APEMLGGPSVFIFPPKPKDTLLIARTPEVTCVVVDLDPEDPEVQISWFVDGKQMQTAKTQPREEQFNGTYRVVSVLPIGHQDWLKGKQFTCKVNNKALPSPIERTISKARGQAHQPSVYVLPPSREELSKNTVSLTCLIKDFFPPDIDVEWQSNGQQEPESKYRTTPPQLDEDGSYFLYSKLSVDKSRWQRGDTFICAVMHEALHNHHTQESLSHSPGK
Kd [3]: 447 nM and 532 nM | koff [3]: 0.134 s⁻¹ and 0.141 s⁻¹ | kon [3]: 300000 M⁻¹ s⁻¹ and 265000 M⁻¹ s⁻¹ | Kd [4]: 386 nM | koff [4]: 0.145 s⁻¹ | kon [4]: 375000 M⁻¹ s⁻¹

B3: canine IgGB Fc (CH2-CH3) N434S with N-terminal SASA tag (Fc fusion, part only; not given: SASA tag, not shown: another chain or arm of the molecule; small tags and cut ends)
Fc: APEMLGGPSVFIFPPKPKDTLLIARTPEVTCVVVDLDPEDPEVQISWFVDGKQMQTAKTQPREEQFNGTYRVVSVLPIGHQDWLKGKQFTCKVNNKALPSPIERTISKARGQAHQPSVYVLPPSREELSKNTVSLTCLIKDFFPPDIDVEWQSNGQQEPESKYRTTPPQLDEDGSYFLYSKLSVDKSRWQRGDTFICAVMHEALHSHYTQESLSHSPGK
Kd [2]: 924 nM and 1050 nM | koff [2]: 0.207 s⁻¹ and 0.209 s⁻¹ | kon [2]: 225000 M⁻¹ s⁻¹ and 199000 M⁻¹ s⁻¹

B4: canine IgGB Fc (CH2-CH3) T286W with N-terminal SASA tag (Fc fusion, part only; not given: SASA tag, not shown: another chain or arm of the molecule; small tags and cut ends)
Fc: APEMLGGPSVFIFPPKPKDTLLIARTPEVTCVVVDLDPEDPEVQISWFVDGKQMQWAKTQPREEQFNGTYRVVSVLPIGHQDWLKGKQFTCKVNNKALPSPIERTISKARGQAHQPSVYVLPPSREELSKNTVSLTCLIKDFFPPDIDVEWQSNGQQEPESKYRTTPPQLDEDGSYFLYSKLSVDKSRWQRGDTFICAVMHEALHNHYTQESLSHSPGK
Kd [3]: 127 nM and 118 nM | koff [3]: 0.0982 s⁻¹ and 0.112 s⁻¹ | kon [3]: 774000 M⁻¹ s⁻¹ and 945000 M⁻¹ s⁻¹ | Kd [4]: 565 nM | koff [4]: 0.195 s⁻¹ | kon [4]: 345000 M⁻¹ s⁻¹

B5: anti-NGF canine IgGB antibody, Fc variant A426H + T286Y (antibody, part only; not given: anti-NGF variable domains and light chain, not shown: another chain or arm of the molecule; small tags and cut ends)
Fc: APEMLGGPSVFIFPPKPKDTLLIARTPEVTCVVVDLDPEDPEVQISWFVDGKQMQYAKTQPREEQFNGTYRVVSVLPIGHQDWLKGKQFTCKVNNKALPSPIERTISKARGQAHQPSVYVLPPSREELSKNTVSLTCLIKDFFPPDIDVEWQSNGQQEPESKYRTTPPQLDEDGSYFLYSKLSVDKSRWQRGDTFICHVMHEALHNHYTQESLSHSPGK
Kd [5]: 255 nM | koff [5]: 0.0409 s⁻¹ | kon [5]: 160000 M⁻¹ s⁻¹ | Kd [6]: 21.3 nM | koff [6]: 0.0286 s⁻¹ | kon [6]: 1.34e+06 M⁻¹ s⁻¹ | Kd [7]: 940 nM | koff [7]: 0.128 s⁻¹ | kon [7]: 136000 M⁻¹ s⁻¹

B6: canine IgGB Fc (CH2-CH3) YTE variant (L252Y/A254T/T256E) with N-terminal SASA tag (Fc fusion, part only; not given: SASA tag, not shown: another chain or arm of the molecule; small tags and cut ends)
Fc: APEMLGGPSVFIFPPKPKDTLYITREPEVTCVVVDLDPEDPEVQISWFVDGKQMQTAKTQPREEQFNGTYRVVSVLPIGHQDWLKGKQFTCKVNNKALPSPIERTISKARGQAHQPSVYVLPPSREELSKNTVSLTCLIKDFFPPDIDVEWQSNGQQEPESKYRTTPPQLDEDGSYFLYSKLSVDKSRWQRGDTFICAVMHEALHNHYTQESLSHSPGK
Kd [8]: 184 nM | koff [8]: 0.046 s⁻¹ | kon [8]: 250000 M⁻¹ s⁻¹ | Kd [4]: 210 nM | koff [4]: 0.0659 s⁻¹ | kon [4]: 314000 M⁻¹ s⁻¹

B7: canine IgGB Fc (CH2-CH3) T286Y with N-terminal SASA tag (Fc fusion, part only; not given: SASA tag, not shown: another chain or arm of the molecule; small tags and cut ends)
Fc: APEMLGGPSVFIFPPKPKDTLLIARTPEVTCVVVDLDPEDPEVQISWFVDGKQMQYAKTQPREEQFNGTYRVVSVLPIGHQDWLKGKQFTCKVNNKALPSPIERTISKARGQAHQPSVYVLPPSREELSKNTVSLTCLIKDFFPPDIDVEWQSNGQQEPESKYRTTPPQLDEDGSYFLYSKLSVDKSRWQRGDTFICAVMHEALHNHYTQESLSHSPGK
Kd [3]: 69.8 nM and 116 nM | kon [3]: 410000 M⁻¹ s⁻¹ and 1.11e+06 M⁻¹ s⁻¹ | Kd [4]: 632 nM | koff [4]: 0.162 s⁻¹ | kon [4]: 256000 M⁻¹ s⁻¹

B8: anti-NGF canine IgGB antibody, Fc variant A426H + T286L (antibody, part only; not given: Anti-NGF variable domains, not shown: another chain or arm of the molecule; small tags and cut ends)
Fc: APEMLGGPSVFIFPPKPKDTLLIARTPEVTCVVVDLDPEDPEVQISWFVDGKQMQLAKTQPREEQFNGTYRVVSVLPIGHQDWLKGKQFTCKVNNKALPSPIERTISKARGQAHQPSVYVLPPSREELSKNTVSLTCLIKDFFPPDIDVEWQSNGQQEPESKYRTTPPQLDEDGSYFLYSKLSVDKSRWQRGDTFICHVMHEALHNHYTQESLSHSPGK
Kd [5]: 464 nM | koff [5]: 0.069 s⁻¹ | kon [5]: 149000 M⁻¹ s⁻¹ | Kd [6]: 35.8 nM | koff [6]: 0.0417 s⁻¹ | kon [6]: 1.16e+06 M⁻¹ s⁻¹ | Kd [7]: 1600 nM | koff [7]: 0.13 s⁻¹ | kon [7]: 81200 M⁻¹ s⁻¹

B9: anti-NGF canine IgGB antibody, Fc variant A426H + D312P (antibody, part only; not given: Anti-NGF variable domains, not shown: another chain or arm of the molecule; small tags and cut ends)
Fc: APEMLGGPSVFIFPPKPKDTLLIARTPEVTCVVVDLDPEDPEVQISWFVDGKQMQTAKTQPREEQFNGTYRVVSVLPIGHQPWLKGKQFTCKVNNKALPSPIERTISKARGQAHQPSVYVLPPSREELSKNTVSLTCLIKDFFPPDIDVEWQSNGQQEPESKYRTTPPQLDEDGSYFLYSKLSVDKSRWQRGDTFICHVMHEALHNHYTQESLSHSPGK
Kd [5]: 376 nM | koff [5]: 0.0547 s⁻¹ | kon [5]: 145000 M⁻¹ s⁻¹ | Kd [6]: 40.5 nM | koff [6]: 0.0532 s⁻¹ | kon [6]: 1.31e+06 M⁻¹ s⁻¹ | Kd [7]: 722 nM | koff [7]: 0.156 s⁻¹ | kon [7]: 217000 M⁻¹ s⁻¹

B10: canine IgGB Fc (CH2-CH3) T286L with N-terminal SASA tag (Fc fusion, part only; not given: SASA tag, not shown: another chain or arm of the molecule; small tags and cut ends)
Fc: APEMLGGPSVFIFPPKPKDTLLIARTPEVTCVVVDLDPEDPEVQISWFVDGKQMQLAKTQPREEQFNGTYRVVSVLPIGHQDWLKGKQFTCKVNNKALPSPIERTISKARGQAHQPSVYVLPPSREELSKNTVSLTCLIKDFFPPDIDVEWQSNGQQEPESKYRTTPPQLDEDGSYFLYSKLSVDKSRWQRGDTFICAVMHEALHNHYTQESLSHSPGK
Kd [3]: 174 nM and 208 nM | koff [3]: 0.0565 s⁻¹ and 0.103 s⁻¹ | kon [3]: 324000 M⁻¹ s⁻¹ and 496000 M⁻¹ s⁻¹ | Kd [4]: 777 nM | koff [4]: 0.253 s⁻¹ | kon [4]: 325000 M⁻¹ s⁻¹

B11: canine IgGB Fc (CH2-CH3) N434Y with N-terminal SASA tag (Fc fusion, part only; not given: SASA tag, not shown: another chain or arm of the molecule; small tags and cut ends)
Fc: APEMLGGPSVFIFPPKPKDTLLIARTPEVTCVVVDLDPEDPEVQISWFVDGKQMQTAKTQPREEQFNGTYRVVSVLPIGHQDWLKGKQFTCKVNNKALPSPIERTISKARGQAHQPSVYVLPPSREELSKNTVSLTCLIKDFFPPDIDVEWQSNGQQEPESKYRTTPPQLDEDGSYFLYSKLSVDKSRWQRGDTFICAVMHEALHYHYTQESLSHSPGK
Kd [2]: 15.9 nM | koff [2]: 0.00968 s⁻¹ | kon [2]: 607000 M⁻¹ s⁻¹ | Kd [8]: 29.1 nM | koff [8]: 0.0151 s⁻¹ | kon [8]: 520000 M⁻¹ s⁻¹

B12: canine IgGB Fc (CH2-CH3) T286F with N-terminal SASA tag (Fc fusion, part only; not given: SASA tag, not shown: another chain or arm of the molecule; small tags and cut ends)
Fc: APEMLGGPSVFIFPPKPKDTLLIARTPEVTCVVVDLDPEDPEVQISWFVDGKQMQFAKTQPREEQFNGTYRVVSVLPIGHQDWLKGKQFTCKVNNKALPSPIERTISKARGQAHQPSVYVLPPSREELSKNTVSLTCLIKDFFPPDIDVEWQSNGQQEPESKYRTTPPQLDEDGSYFLYSKLSVDKSRWQRGDTFICAVMHEALHNHYTQESLSHSPGK
Kd [3]: 157 nM and 185 nM | koff [3]: 0.0527 s⁻¹ and 0.061 s⁻¹ | kon [3]: 336000 M⁻¹ s⁻¹ and 330000 M⁻¹ s⁻¹ | Kd [4]: 616 nM | koff [4]: 0.19 s⁻¹ | kon [4]: 309000 M⁻¹ s⁻¹
